Data reported in paper PMC5501590.

Experiments:
[1] = Myc immunoblot of HEK293 medium, with/without Ni-NTA enrichment; details: glycan lost; control: wild type
[2] = Myc immunoblot of HEK293 whole cell lysates; details: glycan lost; control: wild type

B1: murine IGSF1-2 (IGSF1 isoform 2): N43Q (protein)
parent chain: MMLRTFTLLLLCIWLNPGMTSLAVESQPELWIESNYPQAPWENITLWCKSPSRVSSKFLLLKDNSQMTWIRPPYKTFQVSFFIGALTESNTGLYRCCYWKEKGWSKPSKILELEAPGQLPKPIFWIQAETPPLPGCNVNIFCHGWLQDLVFMLFKEGYTEPVDYQVPTGTMAIFSIDNLAPENEGVYICRTHIQMLPTLWSEPSNPLKLVVAGGCGHGCWHLTIVIPGIMAG
Question: With B1 as the protein, how does the expression_or_secretion [1] read?
Answer: no change

Question: What about the expression_or_secretion [2] of the same protein?
Answer: no change

B2: rat IGSF1-2 (IGSF1 isoform 2): N44Q (protein)
parent chain: MMLRTFTLLLLCIWLNRGMTSMAAVESQPELWIESNYPQAPWENITLWCKSPSRVSSKFLLLKDNTQMTWIHPPYKTFQVSFFIGALTESNTGLYRCCYWNEKGWSKPSKILELEAPGQLPKPIFWIQAETPPFPGCNVNILCHGWLQDLVFMLFKEGYTEPIDYQVPTGTMAIFSIDNLAPENEGIYICRTHIQMLPTLWSEPSNPLKLVVAGGCAHGCWHLTIVIPGIMAG
Question: With B2 as the protein, how does the expression_or_secretion [1] read?
Answer: no change

Question: What about the expression_or_secretion [2] of the same protein?
Answer: no change
